The results in this text go back to publication PMC11203801.

Holding throughout (conditions): remark: other sources report otherwise
The target of experiment [1] is human HSP60 (60-kDa Heat Shock Protein) (human), P10809. The experiment in a line: negative-stain transmission electron microscopy; HSP60 and HSP10 (0.1 mM) incubated for 10 min in the absence of Mizoribine, treated with 2% uranyl acetate; particles classified and counted.
Experiment [2] has the same target. The experiment in a line: native gel or EMSA; purified HSP60 and HSP10 each run on Native-PAGE (5-12% gradient gel by the legend; Blue NativePAGE 3-12% Bis-Tris by the methods), in the absence of ATP, Coomassie stain. Background: A gel shift assay detects complexes by their altered migration in electrophoresis.
Experiment [3] has the same target. Nature of the experiment: native gel or EMSA; HSP60 and HSP10 mixed at the same molar ratio, PBS or Mizoribine below 10 mM (1, 5 mM); Native/PAGE gradient gel, Coomassie stain.
The target is the same in experiment [4]. The experiment in a line: negative-stain transmission electron microscopy; HSP60 and HSP10 (0.1 mM) incubated for 10 min with 10 mM Mizoribine, treated with 2% uranyl acetate; particles classified and counted.

B1: human HSP60 (60-kDa Heat Shock Protein), P10809 27-573 (natural protein)
chain: AKDVKFGADARALMLQGVDLLADAVAVTMGPKGRTVIIEQSWGSPKVTKDGVTVAKSIDLKDKYKNIGAKLVQDVANNTNEEAGDGTTTATVLARSIAKEGFEKISKGANPVEIRRGVMLAVDAVIAELKKQSKPVTTPEEIAQVATISANGDKEIGNIISDAMKKVGRKGVITVKDGKTLNDELEIIEGMKFDRGYISPYFINTSKGQKCEFQDAYVLLSEKKISSIQSIVPALEIANAHRKPLVIIAEDVDGEALSTLVLNRLKVGLQVVAVKAPGFGDNRKNQLKDMAIATGGAVFGEEGLTLNLEDVQPHDLGKVGEVIVTKDDAMLLKGKGDKAQIEKRIQEIIEQLDVTTSEYEKEKLNERLAKLSDGVAVLKVGGTSDVEVNEKKDRVTDALNATRAAVEEGIVLGGGCALLRCIPALDSLTPANEDQKIGIEIIKRTLKIPAMTIAKNAGVEGSLIVEKIMQSSSEVGYDAMAGDFVNMVEKGIIDPTKVVRTALLDAAGVASLLTTAEVVVTEIPKEEKDPGMGAMGGMGGGMGGGMF
As a reminder, the stoichiometry N is the number of molecules, sites or subunits per partner or assembly. On to B1, for which the stoichiometry N in experiment [1], in experiment [2] and in experiment [3] was 7 throughout. Further, the share of observed particles as HSP60 (7) (single ring structure, no HSP10), with 10 mM Mizoribine in experiment [4] turned out to be 4%.
